What was measured:
[1] = biological target: RVFV Gn (crystallization construct) (Rift Valley fever virus, UniProt P21401); assay: SEC; details: both partners purified
[2] = biological target: SFTSV Gn glycoprotein (residues 20-341) (Severe fever with thrombocytopenia …, UniProt R4V2Q5); assay: ELISA; details: both partners purified
SFTSV Gn glycoprotein (residues 20-341), sequence (R4V2Q5 whole entry, looked up, the tested form may be a part): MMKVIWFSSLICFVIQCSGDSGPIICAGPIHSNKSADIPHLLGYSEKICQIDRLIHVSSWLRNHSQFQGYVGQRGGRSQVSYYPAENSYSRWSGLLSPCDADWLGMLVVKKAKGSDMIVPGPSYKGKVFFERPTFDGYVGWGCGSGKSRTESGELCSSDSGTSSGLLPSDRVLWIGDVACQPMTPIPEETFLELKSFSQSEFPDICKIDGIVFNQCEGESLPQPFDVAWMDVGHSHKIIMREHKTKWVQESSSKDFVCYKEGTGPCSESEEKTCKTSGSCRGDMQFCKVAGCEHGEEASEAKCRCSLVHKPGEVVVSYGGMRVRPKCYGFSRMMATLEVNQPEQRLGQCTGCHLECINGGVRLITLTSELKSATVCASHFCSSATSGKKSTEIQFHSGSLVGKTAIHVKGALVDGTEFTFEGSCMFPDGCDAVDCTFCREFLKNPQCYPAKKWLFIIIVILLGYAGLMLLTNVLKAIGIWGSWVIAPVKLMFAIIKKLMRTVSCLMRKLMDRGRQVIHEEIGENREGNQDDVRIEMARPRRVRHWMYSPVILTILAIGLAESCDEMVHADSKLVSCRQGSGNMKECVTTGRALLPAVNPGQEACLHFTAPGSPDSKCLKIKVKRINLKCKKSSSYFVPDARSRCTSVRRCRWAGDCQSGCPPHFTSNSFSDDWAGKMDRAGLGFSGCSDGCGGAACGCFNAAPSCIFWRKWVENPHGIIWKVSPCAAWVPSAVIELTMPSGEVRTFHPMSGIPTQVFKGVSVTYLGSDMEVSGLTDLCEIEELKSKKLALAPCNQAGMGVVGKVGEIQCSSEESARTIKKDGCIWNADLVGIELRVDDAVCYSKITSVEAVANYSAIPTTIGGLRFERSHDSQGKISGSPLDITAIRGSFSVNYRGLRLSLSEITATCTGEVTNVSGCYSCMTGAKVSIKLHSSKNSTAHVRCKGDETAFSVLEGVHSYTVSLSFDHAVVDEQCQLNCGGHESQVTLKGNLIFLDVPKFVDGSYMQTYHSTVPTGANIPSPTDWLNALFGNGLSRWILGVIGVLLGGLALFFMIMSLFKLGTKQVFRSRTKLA

RVFV Gn (crystallization construct), sequence (P21401 168-483): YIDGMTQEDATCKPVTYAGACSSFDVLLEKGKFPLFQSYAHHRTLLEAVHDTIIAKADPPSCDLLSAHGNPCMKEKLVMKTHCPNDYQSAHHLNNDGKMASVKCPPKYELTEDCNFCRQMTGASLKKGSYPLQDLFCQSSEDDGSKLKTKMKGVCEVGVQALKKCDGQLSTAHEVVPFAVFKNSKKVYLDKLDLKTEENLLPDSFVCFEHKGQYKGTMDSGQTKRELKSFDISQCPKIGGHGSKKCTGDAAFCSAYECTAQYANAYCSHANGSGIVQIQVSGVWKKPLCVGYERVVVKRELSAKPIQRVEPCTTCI

B1: Fab fragment of RV-Gn1 (Fab, V domains shown)
VH: TGSLEESGGRLVTPGTPLTLTCTVSGIDPNSDHMSWVRQAPGKGLEWIAIIYASGTTYYASWAKGRFTISKTSTTVDLRIASPTTEDTATYFCATYPNYPTDNLWGQGTLVTVSG
VL: TGMTQTPSPVSAAVGGTVTINCQASQSVYNNYLLSWYQQKPGQPPKRLIYSASTLASGVSSRFKGSGSGTQFTLTISDVQCDDAATYYCLGSYDGNSADCLAFGGGTEVVVK
notes: also called RV-Gn1 Fab; Fab RV-Gn1
stoichiometry N [1]: 1

B2: RV-Gn1 (full-length rabbit IgG) (antibody, V domains shown)
VH: QSLEESGGRLVTPGTPLTLTCTVSGIDPNSDHMSWVRQAPGKGLEWIAIIYASGTTYYASWAKGRFTISKTSTTVDLRIASPTTEDTATYFCATYPNYPTDNLWGQGTLVTVSS
VL: B1 VL
notes: also called RVFV-Gn1; source: rabbit hybridoma supernatant, purified (Protein G)
binding result [2]: no binding (tested: 10μg/ml)

Reference: publication PMC6315105 (Cell Reports, 2018)
